Experimental data: patent US10801046B2, “Methods and materials for biosynthesizing multifunctional, multivariate molecules via carbon chain modification” (INVISTA NORTH AMERICA S.A.R.L., priority 2016, dated 2020)

How the values were obtained:
[1] = Carboxylate reductase activity, 7-hydroxyheptanoate to 7-hydroxyheptanal, NADPH consumption at 340 nm; format: biochemical; settings: enhanced by gene product of sfp, 20 min, against empty vector control, FIG. 44
Protocol: A sequence encoding a His-tag was added to the genes from Mycobacterium marinum, Mycobacterium smegmatis, Segniliparus rugosus, Mycobacterium smegmatis, Mycobacterium massiliense, and Segniliparus rotundus that encode the carboxylate reductases of SEQ ID NOs: 25 (GenBank Accession No. ACC40567.1), 27 (GenBank Accession No. ABK75684.1), 29 (GenBank Accession No. ABK71854.1), 31 (GenBank Accession No. EFV11917.1), 37 (GenBank Accession No. EIV11143.1), and 38 (GenBank Accession No. ADG98140.1) such that N-terminal HIS tagged carboxylate reductases could be produced. Each of the modified genes was cloned into a pET Duet expression vector alongside a sfp gene encoding a His-tagged phosphopantetheine transferase from Bacillus subtilis, both under control of the T7 promoter.
Each expression vector was transformed into a BL21[DE3] E. coli host and the resulting recombinant E. coli strains were cultivated at 37° C. in a 250 mL shake flask culture containing 50 mL LB media and antibiotic selection pressure, with shaking at 230 rpm. Each culture was induced overnight at 37° C. using an auto-induction media.
The pellet from each induced shake flask culture was harvested via centrifugation. Each pellet was resuspended and lysed via sonication. The cell debris was separated from the supernatant via centrifugation. The carboxylate reductases and phosphopantetheine transferase were purified from the supernatant using Ni-affinity chromatography, diluted 10-fold into 50 mM HEPES buffer (pH=7.5) and concentrated via ultrafiltration.
Enzyme activity (i.e., 7-hydroxyheptanoate to 7-hydroxyheptanal) assays were performed in triplicate in a buffer composed of a final concentration of 50 mM HEPES buffer (pH=7.5), 2 mM […], 10 mM MgCl2, 1 mM ATP, and 1 mM NADPH. Each enzyme activity assay reaction was initiated by adding purified carboxylate reductase and phosphopantetheine transferase or the empty vector control to the assay buffer containing the 7-hydroxyheptanoate and then incubated at room temperature for 20 min. The consumption of NADPH was monitored by absorbance at 340 nm.

[2] = Carboxylate reductase activity, heptanedioate to 7-oxoheptanoate, NADPH consumption at 340 nm; format: biochemical; settings: enhanced by gene product of sfp, 2 mM substrate, 20 min, against empty vector control, FIG. 43
Protocol: A sequence encoding a HIS-tag was added to the genes from Segniliparus rugosus and Segniliparus rotundus that encode the carboxylate reductases of SEQ ID NOs: 31 (GenBank Accession No. EFV11917.1) and 38 (GenBank Accession No. ADG98140.1), respectively, such that N-terminal HIS tagged carboxylate reductases could be produced. Each of the modified genes was cloned into a pET Duet expression vector along with a sfp gene encoding a HIS-tagged phosphopantetheine transferase from Bacillus subtilis, both under the T7 promoter. Each expression vector was transformed into a BL21[DE3] E. coli host and the resulting recombinant E. coli strains were cultivated at 37° C. in a 250 mL shake flask culture containing 50 mL LB media and antibiotic selection pressure, with shaking at 230 rpm. Each culture was induced overnight at 37° C. using an auto-induction media.
The pellet from each induced shake flask culture was harvested via centrifugation. Each pellet was resuspended and lysed via sonication, and the cell debris was separated from the supernatant via centrifugation. […]
Enzyme activity assays (i.e., from heptanedioate to 7-oxoheptanoate) were performed in triplicate in a buffer composed of a final concentration of 50 mM HEPES buffer (pH=7.5), 2 mM heptanedioate, 10 mM MgCl2, 1 mM ATP, and 1 mM NADPH. […] The consumption of NADPH was monitored by absorbance at 340 nm.

acceptance of heptanedioate as substrate, forming 7-oxoheptanoate [2]: accepted heptanedioate as substrate
B1: SEQ ID NO: 31: Segniliparus rugosus carboxylate reductase (protein)
chain: MGDGEERAKRFFQRIGELSATDPQFAAAAPDPAVVEAVSDPSLSFTRYLDTLMRGYAERPALAHRVGAGYETISYGELWARVGAIAAAWQADGLAPGDFVATVGFTSPDYVAVDLAAARSGLVSVPLQAGASLAQLVGILEETEPKVLAASASSLEGAVACALAAPSVQRLVVFDLRGPDASESAADERRGALADAEEQLARAGRAVVVETLADLAARGEALPEAPLFEPAEGEDPLALLIYTSGSTGAPKGAMYSQRLVSQLWGRTPVVPGMPNISLHYMPLSHSYGRAVLAGALSAGGTAHFTANSDLSTLFEDIALARPTFLALVPRVCEMLFQESQRGQDVAELRERVLGGRLLVAVCGSAPLSPEMRAFMEEVLGFPLLDGYGSTEALGVMRNGIIQRPPVIDYKLVDVPELGYRTTDKPYPRGELCIRSTSLISGYYKRPEITAEVFDAQGYYKTGDVMAEIAPDHLVYVDRSKNVLKLSQGEFVAVAKLEAAYGTSPYVKQIFVYGNSERSFLLAVVVPNAEVLGARDQEEAKPLIAASLQKIAKEAGLQSYEVPRDFLIETEPFTTQNGLLSEVGKLLRPKLKARYGEALEARYDEIAHGQADELRALRDGAGQRPVVETVVRAAVAISGSEGAEVGPEANFADLGGDSLSALSLANLLHDVFEVEVPVRIIIGPTASLAGIAKHIEAERAGASAPTAASVHGAGATRIRASELTLEKFLPEDLLAAAKGLPAADQVRTVLLTGANGWLGRFLALEQLERLARSGQDGGKLICLVRGKDAAAARRRIEETLGTDPALAARFAELAEGRLEVVPGDVGEPKFGLDDAAWDRLAEEVDVIVHPAALVNHVLPYHQLFGPNVVGTAEIIRLAITAKRKPVTYLSTVAVAAGVEPSSFEEDGDIRAVVPERPLGDGYANGYGNSKWAGEVLLREAHELVGLPVAVFRSDMILAHTRYTGQLNVPDQFTRLVLSLLATGIAPKSFYQQGAAGERQRAHYDGIPVDFTAEAITTLGAEPSWFDGGAGFRSFDVFNPHHDGVGLDEFVDWLIEAGHPISRIDDHKEWFARFETAVRGLPEAQRQHSLLPLLRAYSFPHPPVDGSVYPTGKFQGAVKAAQVGSDHDVPHLGKALIVKYADDLKALGLL
modifications: Segniliparus rugosus ATCC BAA-974
notes: Segniliparus rugosus carboxylate reductase
acceptance of 7-hydroxyheptanoate as substrate, forming 7-hydroxyheptanal [1]: accepted 7-hydroxyheptanoate as substrate
